B1: miR-127: microRNA, accession number NR_029696.1, SEQ ID NO: 4; targets the HMGB2 3′UTR (nucleic acid, listed as Homo sapiens)
chain: TGTGATCACTGTCTCCAGCCTGCTGAAGCTCAGAGGGCTCTGATTCAGAAAGATCATCGGATCCGTCTGAGCTTGGCTGGTCGGAAGTCTCATCATC
modifications: expressed or natural sequence
B2: miR-543: microRNA, accession number NR_030619.1, SEQ ID NO: 6 (nucleic acid, listed as Homo sapiens)
chain: TACTTAATGAGAAGTTGCCCGTGTTTTTTTCGCTTTATTTGTGACGAAACATTCGCGGTGCACTTCTTTTTCAGTATC
modifications: expressed or natural sequence
B3: miR-539: microRNA, accession number NR_030256.1, SEQ ID NO: 5 (nucleic acid, listed as Homo sapiens)
chain: ATACTTGAGGAGAAATTATCCTTGGTGTGTTCGCTTTATTTATGATGAATCATACAAGGACAATTTCTTTTTGAGTAT
modifications: expressed or natural sequence

Columns and labels:
[1] = test system: MMP and Rho signaling; assay: Western blot of MMP and Rho signaling in TIC cells; format: cell-based; conditions: TIC cells, miR-127 lentivirus versus GFP (FIG. 15B)
Procedure: (§1) Western Blotting: Total protein lysates were prepared from livers and cells in lysis buffer containing 50 mM Tris, pH 8.0, 1% Nonidet™ P-40, 150 mM NaCl, 0.5% sodium deoxycholate, 0.1% SDS with protease inhibitors (Thermo Fisher Scientific) and subjected to immunoblotting. Nuclear and cytoplasmic subcellular fractions were prepared using NE-PER nuclear and cytoplasmic extraction reagents (Pierce) according to the manufacturer's instructions. The blot was incubated with a primary antibody, followed by a secondary antibody conjugated to horseradish peroxidase. ECL kit (Pierce) was used to detect the reactivity. The following antibodies were obtained from Cell Signaling Technology: HMGB2, HMGB1, AKT, p-AKT, mTOR, p-mTOR, ERK1/2, pERK1/2, Raptor, Rictor, p53, p21, p-Bad, Smad4, p-Smad2/3, Lamin A/C, a-SMA, MMP2, MMP9, TIMP1, RhoA, Rho-GTP, Cdc42, Rac1/2/3. Anti-HA antibody and anti-beta actin antibody were purchased from Sigma and Santa Cruz Biotechnology, respectively.
Cell Lines The LX-2 human stellate cell line was maintained in Dulbecco's Modified Eagle's Medium (DMEM) supplemented with 2% fetal bovine serum (FBS), 100 IU/ml penicillin, and 100 μg/ml streptomycin. Human hepatocellular carcinoma (HCC) MHCC97H cells were maintained in DMEM supplemented with 10% FBS, 100 IU/ml penicillin, and 100 μg/ml streptomycin, 1 mM HEPES, 1 mM sodium pyruvate, 2 mM L-glutamine. Tumor-initiating (TIC) cells were obtained from Dr. Hidekazu Tsukamoto at University of Southern California and were maintained in 1:1 DMEM:F12 supplement with 100 U/ml penicillin and 100 μg/ml streptomycin, 2 mM glutamine, 20 ng/ml mouse EGF, 10 nM dexamethasone, 1× embryomax nucleotides. All the cells were maintained at 37° C. humidified atmosphere with 5% CO2. TIC cells were infected with Hmgb2 shRNA lentivirus for 48 hr, and treated with 500 ng/ml puromycin for 2 weeks. The stable cells were used for migration and invasion assay, as well as western blot.

[2] = test system: TIC cells; assay: TIC cell spheroid assay; format: cell-based; conditions: TIC cells infected with miR-127 lentivirus (FIG. 15C)
Procedure: TIC cells were trypsinized into single cells and 1000 cells were suspended in serum free TIC medium with 1% methylcellulose supplemented with B27, 20 ng/ml EGF and 20 ng/ml FGF in each well of 96-well ultralow attachment plate.

[3] = test system: CGR8 ES cells; assay: CGR8 ES cell differentiation and EB formation; format: cell-based, mouse; conditions: knockdown of HMGB2 (summary)
Procedure: (§2) Cell culture, Cell transfection:HEK293T, Hela, Hep3B and MHCC97H cells were cultured and transfected using X-tremeGENE™ HP DNA transfection reagent (Roche) as described previously. CGR8 ES cells were cultured on 0.1% gelatin coated tissue-culture dish in knockout DMEM medium containing 15% ES qualified-Fetal Bovine Serum, 2 mM L-glutamin, 0.1 mM NEAA, 0.1 mM β-mercaptoethanol, 50 μg/ml penicillin-streptomycin and 10 ng/ml Leukemia inhibitory factor (LIF). TIC cells were cultured in DMEM-F12 medium containing Embryomax nucleotides, 2 mM L-glutamin, 0.1 mM NEAA, 20 ng/ml mouse EGF, 50 μg/ml penicillin-streptomycin and […].
(§3) ES cells EB formation and TICs spheroid assay: CGR8 ES cells were trypsinized into single cells and cultured in ES medium devoid of LIF in hanging drops (900 cells per EB) for 2 d and transferred to ultralow attachment plate for a further 2 d suspension culture. Then, EBs were plated onto gelatin coated tissue-culture plate for further 7 d spontaneously differentiation.
FIGS. 10A-C show the establishment of CGR8 cell culture and differentiation. […] Undifferentiated feeder-free CGR8 ES cells were maintained on 0.1% gelatin coated 6-cm tissue-culture dish in ES medium containing 10 ng/ml Leukemia inhibitory factor (LIF). For EB formation, CGR8 ES cells were trypsinized into single cells and cultured in ES medium devoid of LIF in hanging drops (900 cells per EB) for 2 d and in suspension culture for a further 2 d. Then, EBs were transferred onto gelatin coated tissue-culture plate for further spontaneously differentiation. ES withdraw LIF 2d, CGR8 ES cells were cultured in ES medium devoid of LIF for 2 d.
FIG. 14A is Left, Western blot of HMGB2 and SOX2 protein in HEK293T cells transfected with 0.5 μg […] expression plasmid and 0, 1 or 2 μg Flag-HMGB2 expression plasmid. Right, Western blot of HMGB2 and OCT4 protein in HEK293T cells transfected with 0.5 μg HA-OCT4 expression plasmid and 0, 1 or 2 μg Flag-HMGB2 expression plasmid. […] CGR8 cells were lysed, co-immunoprecipitated with OCT4 antibody, followed by Western blot with HMGB2 or OCT4 antibodies. FIG. 14 C is a luciferase reporter assay. HepG2 cells were infected with AAV8-GFP or AAV8-HMGB2 24 hrs before being transfected with 6*OS luciferase reporter and OCT4, SOX2 expression plasmids alone or in combination.

[4] = test system: HMGB2 3′UTR; assay: HMGB2 3′UTR luciferase reporter assay in HEK293T cells; format: cell-based, human; conditions: 0, 75 or 150 ng miR-127 (FIG. 12A-12B)
Procedure: Luciferase reporter assay: 48 h after transfection with luciferase reporter plasmid and Renilla plasmid, cells were harvested and analyzed with the Dual-Luciferase reporter assay system (Promega) as described. All assays were done in triplicates, and all values were normalized for transfection efficiency against Renilla luciferase activities.
FIG. 12A is a sequence alignment of miR-127 and the 3′-UTR of HMGB2 in human, mouse and rat. The seed match region is indicated by underline. mut, mutant FIG. 12B is a Luciferase reporter assay. Left, HEK293T cells were transfected with HMGB2 3′UTR luciferase reporter with 0, 75 or 150 ng miR-127; Middle, HEK293T cells were transfected with wild-type or mutant HMGB2 3′UTR with or without 150 ng miR-127. Right, HEK293T cells were transfected with HMGB2 3′UTR with or without miR-127 antagomir. Luciferase activity was normalized to Renilla activity. In FIG. 12C, Western blotting was performed to determine endogenous HMGB2 protein in Hela cells that were transfected with pTarget, pTarget-miR-433, or pTarget-miR-127. β-Actin served as an internal control. In FIG. 12D, Left, western blot was performed to determine HMGB2 and CREB protein level in MHCC97H cells transfected with miR-127 for 24 hrs. Right, qPCR analysis of miR-127 level in MHCC97 cells transfected with miR-127 for 0, 24, 48 hrs. […]

[5] = test system: HMGB2 protein; assay: Western blot of HMGB2 protein in HCC cells transfected with miR-127; format: cell-based, human; conditions: HCC cells transfected with miR-127 (FIGS. 12C-F)
Procedure: as §1
Cell culture, Cell transfection:HEK293T, Hela, Hep3B and MHCC97H cells were cultured and transfected using X-tremeGENE™ HP DNA transfection reagent (Roche) as described previously. […]

[6] = test system: CGR8 ES cells; assay: qPCR of ES markers and three-germ layer genes in CGR8 ES cells and EBs; format: cell-based, mouse; conditions: miR-127 lentivirus versus GFP; CGR8 ES cells and 4d EBs
Procedure: RNA Isolation and Analysis: RNA was isolated using TRIzol® (Thermo Fisher) according to the manufacturer's instructions. For quantitative real time RT-PCR (q-PCR), RNA was reverse transcribed using iScript™ cDNA Synthesis Kit (Bio-Rad). The resultant cDNA was amplified and quantified using SsoAdvance™ Universal SYBR® Green Supermix (Bio-Rad) in CFX384 Touch™ Real-Time PCR Detection System (BioRad). qPCR was performed in triplicate for each sample and repeated at three times. Ct values were used to calculate the relative expression level normalized to the levels of Hprt1 or beta-actin expression.
as §3
(§4) Right, western blot of HMGB2, RhoA, CDC42, Rac1/2/3 in TIC cells which were infected with miR-127 or GFP lentivirus.

[7] = test system: HMGB2 protein; assay: Western blot of HMGB2 in TIC cells infected with miR-127 lentivirus; format: cell-based; conditions: miR-127 lentivirus versus GFP (FIG. 15B)
Procedure: as §1, §4

[8] = test system: HMGB2 protein; assay: Inhibition of HMGB2 protein by miRNAs in human and mouse cells; format: cell-based
Procedure: as §1, §2
We identified conserved binding sites for miR-539, miR-543, miR-181c, and miR-23α in human and mouse HMGB2 3′UTRs (not sho4wn). We tested the inhibition of HMGB2 protein by these miRNAs in both human and mouse cells. […]

[9] = miRNA overexpression, Huh7, HEK293T, Hepa1, or TIC (FIG. 11)

| Molecule | Rhos/CDC42/Rac signaling [1] | spheroid formation [2] | CGR8 differentiation [3] | targeting of HMGB2 3′UTR (luciferase reporter) [4] | HMGB2 protein [5] | differentiation markers (Bmp5, Foxa2) [6] | stem cell marker (Oct4, Nanog, Sox2) expression [6] | HMGB2 protein [7] | HMGB2 protein [8, 9] | HMGB2 protein ([8]; only in Huh7) |
| --- | --- | --- | --- | --- | --- | --- | --- | --- | --- | --- |
| B1 | downregulates | downregulates | promotes CGR8 differentiation | targets the HMGB2 3′UTR | decreases HMGB2 protein | increases | decreases | downregulates | – | – |
| B2 | – | – | – | – | – | – | – | – | decreased | – |
| B3 | – | – | – | – | – | – | – | – | decreased | inhibited |

Reference: patent US20180320177A1, “COMPOSITIONS AND METHODS FOR THE TREATMENT OF LIVER FIBROSIS” (UNIVERSITY OF CONNECTICUT, priority 2015, published 2018)
